The experiment addresses mature TGFβ1 produced in Nicotiana benthamiana (human). Put plainly: non-reducing Tricine-PAGE with Western blot; mature TGFβ1 released by HCl, 10% Tricine-PAGE under reducing or non-reducing conditions, anti-TGFβ1 blot.

Broadly, the stoichiometry N is a count of units in the complex or per binding partner. For “mature TGFβ1 produced in Nicotiana benthamiana (ligand)”, the stoichiometry N was determined as 2.

The record behind these values is paper PMC9197560.
